Measured values: patent publication US20210364527A1 (QUANTUM SI, published 2021)

B1: PS574 (other)
chain: MANATPTPDVVPEEETETRTRRQPPYAVVLHNDDTNTMDFVVTVLRKVFGYTVEKCVELMLEAHTQGKVAVWIGALEVAELKADQIKSFGPDPHVTKNGHPLGVTVEPAA
B2: PS564 (other)
chain: MFEEVVSVAVAEPKTKKQSRTKPKRQPPYHVILWDDTDHTFDYVIKMMGELFRMPREKGYQLAKEVDTSGRAICMTTTLELAELKRDQIHAFGRDDASAHCKGSMSATIEPAEG
B3: PS563 (other)
chain: MSSRSATAYPEVEDDTSDQLQPLYHVILLNDEDHTYDYVIEMLQKIFGFPESKAFSHAVEVDTKGTTILLTCDLEQAERKRDLIHSYGPDWRLPRSLGSMAAVVEPAAG
B4: PS567 (other)
chain: MADYEDAGEDALEDDFDHGTVTVAPQKPEPKKQSENKRQANRQPRYNVLLWDSEDHTFEYVEKMLRELFGHIKKQCQIIAEQVDQEGRAVVLTTTLEHAELKRDQIHAYGKDQLEGSKGSMWSTIEAVD
B5: PS572 (other)
chain: MSSEELSLQTRPKRQPPFGVILHNDDLNSFDYVIDSIRKVFHYELEKCFQLTLEAHETGRSLLWTGTLEGAELKQELLLSCGPDPIMLDKGGLPLKVTLEELPQ
B6: PS562 (other)
chain: MSDQQSMVAEPEVVVHTQDEKKLEKQNKRKKQPRYNVVLWDDTDHSYDYVVLMMKQLFHHPIETGFQIAKQVDKGGKAICLTTTMEHAELKRDQIHAFGKDDLIARCTGSMSATIEPVPE
B7: PS573 (other)
chain: MSQTPVIEETTVKDPVKTGGPWKVVLWDDDEHTYDYVIEMLMEVCVMTMEQAFHHAVEVDTQKKTVVYSGEFEHAEHIQELILEYGPDPRMAVSKGSMSATLEKS
B8: PS552 (other)
chain: MSKTSTLPEVESESAQKLKYQPPYHVILLNDDDHSYVYVITMLKELFGHPEQKGYQLADAVDKQGRAIVFTTTREHAELKQEQIHAYGPDPTIPRCKGAMTAVIEPAE
B9: PS577 (other)
chain: MSASSSQPGTTTKPDLDIQPRLLPPFHVILENDEFHSMEFVIDTLRKVLGVSIERAYQLMMTAHESGQAIIWTGPKEVAELKYEQVIGFHEKRSDGRDLGPLGCRIEPAV
B10: PS561 (other)
chain: MAELQTAVVEPTTRPEQDEKQSQSRPKRQPRYNVILWDDPDHSYDYVIMMLKELFGHPRQRGHQMAEEVDTTGRVICLTTTMEHAELKRDQIHAYGSDEGITRCKGSMSASIEPVPE
B11: PS379 (other)
chain: MSTQEEVLEEVKTTTQKENEIVLYNDDYNTFDHVIETLIYACEHTPVQAEQCAILVHYKGKCTVKTGSFDELKPRCSKLLEEGLSAEIV
B12: PS373 (other)
chain: MNRIKQEAVRTENLLICSESIRRTPGTMSNEESMFDEVVAVAVAEPETQHDERRGTKPKRQPPYHVILWDDTDHSFDYVIMMMKRLFRMPIEKGFQVAKEVDSSGRAICMTTTLELAELKRDQIHAFGKDELLPRCKGSMSATIEPAEG
B13: PS435 (other)
chain: MTLSVALGPDTQESTQTGTAVSTDTLTAPDIPWNLVIWNDPVNLMSYVSYVFQSYFGYSETKANKLMMEVHKKGRSIVAHGSKEQVEQHAVAMHGYGLWATVEKATGGNSGGGKSGGPGKGKGKRG
B14: PS406 (other)
chain: MPDATTTPRTKTLTRTARPPLHKVILVNDDFTPREFVVRLLKAEFRTTGDEAQRIMITAHMKGSCVVAVFTREIAESKATRATETARAEGFPLLFTTEPEE
B15: PS431 (other)
chain: MIISSVKSSPSTETLSRTELQLGGVWRVVVLNDPVNLMSYVMMIFKKIFGFNETVARRHMLEVHEKGRSVVWSGLREKAEAYVFTLQQWHLTAVLESDETH
B16: PS429 (other)
chain: MSVQEEVLEEVKTKERVNKQNQIIVFNDDVNTFDHVIDMLIATCDHDPIQAEQCTMLIHYKGKCEVKTGDYDDLKPRCSKLLDAGISAEIQ
B17: PS381 (other)
chain: MVAFSKKWKKDELDKSTGKQKMLILHNDSVNSFDYVIKTLCEVCDHDTIQAEQCAFLTHFKGQCEIAVGEVADLVPLKNKLLNKNLIVSIH
B18: PS377 (other)
chain: MADISKSRPEIGGPKGPQFGDSDRGGGVAVITKPVTKKKFKRKSQTEYEPYWHVLLHHDNVHTFEYATGAIVKVVRTVSRKTAHRITMQAHVSGVATVTTTWKAQAEEYCKGLQMHGLTSSIAPDSSFTH
B19: PS368 (other)
chain: MASAPSTTLDKSTQVVKKTYPNYKVIVLNDDLNTFDHVANCLIKYIPDMTTDRAWELTNQVHYQGQAIVWTGPQEQAELYHQQLRREGLTMAPLEAA
B20: PS369 (other)
chain: MTSTLRARPARDTDLQHRPYPHYRIIVLDDDVNTFQHVVNCLVTFLPGMTRDQAWAMAQQVDGEGSAVVWTGPQEQAELYHVQLGNHGLTMAPLEPV
B21: PS391 (other)
chain: MGQTVEKPRVEGPGTGLGGSWRVIVRNDDHNTFDHVARTLARFIPGVSLERGHEIAKVIHTTGRAVVYTGHKEAAEHYWQQLKGAGLTMAPLEQG

Target: T1, IA peptide IAKLDEESILKQK (XAKLDEESILKQK, X = I)
T1 construct: Immobilized on the biolayer interferometry sensor
T1 peptide: IAKLDEESILKQK
Experiment: BLI heatmap

Row | Binder | binding result
1 | B1 | no binding
2 | B2 | no binding
3 | B3 | binds
4 | B4 | no binding
5 | B5 | no binding
6 | B6 | no binding
7 | B7 | binds
8 | B8 | binds
9 | B9 | no binding
10 | B10 | no binding

Target: T2, LA peptide LAKLDEESILKQK (XAKLDEESILKQK, X = L)
T2 construct: Immobilized on the biolayer interferometry sensor
T2 peptide: LAKLDEESILKQK
Experiment: BLI heatmap

Row | Binder | binding result
11 | B1 | no binding
12 | B2 | no binding
13 | B3 | binds
14 | B4 | no binding
15 | B5 | no binding
16 | B6 | no binding
17 | B7 | binds
18 | B8 | binds
19 | B9 | no binding
20 | B10 | no binding

Target: T3, F peptide FAKLDEESILKQK (XAKLDEESILKQK, X = F)
T3 construct: Immobilized on the biolayer interferometry sensor
T3 peptide: FAKLDEESILKQK
Experiment: BLI heatmap

Row | Binder | binding result
21 | B1 | binds
22 | B2 | no binding
23 | B3 | no binding
24 | B4 | no binding
25 | B5 | binds
26 | B6 | no binding
27 | B7 | no binding
28 | B8 | no binding
29 | B9 | binds
30 | B10 | no binding

Target: T4, VA peptide VAKLDEESILKQK (XAKLDEESILKQK, X = V)
T4 construct: Immobilized on the biolayer interferometry sensor
T4 peptide: VAKLDEESILKQK
Experiment: BLI heatmap

Row | Binder | binding result
31 | B1 | no binding
32 | B2 | no binding
33 | B3 | binds
34 | B4 | no binding
35 | B5 | no binding
36 | B6 | no binding
37 | B7 | binds
38 | B8 | binds
39 | B9 | no binding
40 | B10 | no binding

Target: T1, IA peptide IAKLDEESILKQK …
Experiment: BLI heatmap
Remark: another data set of the same source

Row | Binder | binding result
41 | B11 | no binding
42 | B12 | no binding
43 | B13 | no binding
44 | B14 | no binding
45 | B15 | no binding
46 | B16 | no binding
47 | B17 | no binding
48 | B18 | no binding
49 | B19 | no binding

Target: T2, LA peptide LAKLDEESILKQK …
Experiment: BLI heatmap
Remark: another data set of the same source

Row | Binder | binding result
50 | B20 | binds
51 | B11 | no binding
52 | B21 | binds
53 | B12 | no binding
54 | B13 | binds
55 | B14 | no binding
56 | B15 | no binding
57 | B16 | no binding
58 | B17 | no binding
59 | B18 | no binding
60 | B19 | binds

Target: T3, F peptide FAKLDEESILKQK (XAKLDEESILKQK, …)
Experiment: BLI heatmap
Remark: another data set of the same source

Row | Binder | binding result
61 | B20 | binds
62 | B11 | no binding
63 | B21 | binds
64 | B12 | no binding
65 | B13 | binds
66 | B14 | binds
67 | B17 | no binding
68 | B19 | binds

Target: T5, W peptide WAKLDEESILKQK (XAKLDEESILKQK, X = W)
T5 construct: Immobilized on the biolayer interferometry sensor
T5 peptide: WAKLDEESILKQK
Experiment: BLI heatmap

Row | Binder | binding result
69 | B11 | no binding
70 | B12 | no binding
71 | B13 | binds
72 | B14 | binds
73 | B15 | no binding
74 | B16 | no binding
75 | B17 | no binding
76 | B18 | binds
77 | B19 | binds

Target: T6, Y peptide YAKLDEESILKQK (XAKLDEESILKQK, X = Y)
T6 construct: Immobilized on the biolayer interferometry sensor
T6 peptide: YAKLDEESILKQK
Experiment: BLI heatmap

Row | Binder | binding result
78 | B20 | binds
79 | B11 | no binding
80 | B21 | binds
81 | B12 | no binding
82 | B13 | binds
83 | B14 | binds
84 | B15 | no binding
85 | B16 | no binding
86 | B17 | no binding
87 | B18 | no binding
88 | B19 | binds

Target: T4, VA peptide VAKLDEESILKQK …
Experiment: BLI heatmap
Remark: another data set of the same source

Row | Binder | binding result
89 | B11 | no binding
90 | B12 | no binding
91 | B13 | no binding
92 | B14 | no binding
93 | B15 | no binding
94 | B16 | no binding
95 | B17 | no binding
96 | B18 | no binding
97 | B19 | no binding
